The supplement of paper PMC9170038

Test system: MS2 coat protein
Assay: apparent KD of MS2 coat protein; designed switch direction (-1 OFF switch, 1 ON switch): -1; higher = weaker reporter binding
How it was run: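 Normalised cluster fluorescence was curve-fitted, and each design's median over clusters is its apparent KD. Before this, SNAP-549-labelled MS2 coat protein was titrated from 0.7 or 1.5 nM, doubling to 3 µM, over RNA switches transcribed on Illumina chips by stalled E. coli RNA polymerase. Titrations had no input, 200 uM small-molecule ligand, or an oligonucleotide input, and steps lasted 0.8–1.5 h (lowest) to 10–20 min (highest).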

[1] = Eterna round: R95, input ligand: microRNA oligo, concentration not stated
[2] = Eterna round: R95, input ligand: FMN 200 uM
[3] = Eterna round: R95, input ligand: none

Sequence	apparent KD of MS2 coat protein (input ligand: FMN 200 uM) [nM]	apparent KD of MS2 coat protein (input ligand: none) [nM]	apparent KD of MS2 coat protein [1] [nM]	apparent KD of MS2 coat protein [2] [nM]	apparent KD of MS2 coat protein [3] [nM]
UGCAGACGAGGAUAUAGAUUUAAGUACAUGAGGAUCACCCAUGUACACAUGUAUUUAGAUUUAGAAGGCGUCUGCU [E5/17-A4] (Eterna round: R97, puzzle: Exclusion 5)	987	1210			
UGCAUGCUAGGAUAUACGAAACAUUAGGGUUCUUUGUAUGAACAUGAGGAUCACCCAUGUAGAAGGAGCGUGCU [Mod7 of JL-ex2-2.15 mat747 mod] (puzzle: Exclusion 2)			92.4		
UGCAUGUGAGGAUAUGGCGCUCGAUUGCGGAAGGAGCGAGUUUAGAAGGUACAUGAGGAUCACCCAUGUCACGU [Eternabot (L2) Solution 97] (Eterna round: R97, puzzle: Exclusion 4)	21.6	25.9			
UGCGAGUAAGGAUAUUCGCGACCGUUCACAAGAACGGUCGAGAAGAAGGUACUUGAGGAUCACCCAAGUCCUAG [Leonxegece] (Eterna round: R97, puzzle: Exclusion 4)	103	24.2			
UGCGGUAGAGGAUAUACGUAGAAUUAGAUUCAUGUAAAACUACAUGAGGAUCACCCAUGUAGAAGGCUAUCGCU [JL-ex2-4.31 Eli mod] (Eterna round: R97, puzzle: Exclusion 2)	102	19.3			
UGGCUGCUUAUGGAGUGUGACAUGAGGAUCACCCAUGUGGUAGUAAGGAACAAGCUUUUUACACGUACUUAUAAAGC [JR_SV3TOV1_Sub012] (puzzle: Sensor v3, turn-off variant 1)			64.3	296	438
UGGGAGGGAGGAUAUACGAAAGUUAUUCUCAUGUCAGACCCACAUGAGGAUCACCCAUGUAGAAGGCCCGGGUC [EX2 B.17] (Eterna round: R97, puzzle: Exclusion 2)	358	203			
UGGGUACUCCAUAGAAGAGACAUGAGGAUCACCCAUGUAGGGCAAGCUUUUUGCUCGUCUUAGGAUGAGGGAUAGGA [JR_SV3TOV1_Sub014] (puzzle: Sensor v3, turn-off variant 1)			79.1	171	188
UGGGUUCUCCAUAGAAGUAACAUGAGGAUCACCCAUGUAGGGCAAGUUUUUUGUUCGUCAUAGGCUGUGGAUUUGGA [JR_SV3TOV1_Sub020] (puzzle: Sensor v3, turn-off variant 1)			170	90.8	133
UGGGUUGUUGUGAGGAUAUACUGUUUGUUUUGUUUGUAGAAGGUACAUGAGGAUCACCCAUGUUGGUUGUGGUU [JR_BME4_Sub031] (puzzle: Brourd's mod of Exclusion 4)			204		
UGGUAGUGAGGAUAUCCAAUAUAUGACAUGAGGAUCACCCAUGUUUCCACUCGUACCUCCGGAGAAGGCACAUGGU [Ex5 #54] (Eterna round: R97, puzzle: Exclusion 5)	67.6	61.9			
UGGUAGUUAGGAUAUACAUGAGGAUCACCCAUGUACGGGUGCAGAAAAGAAAGCCUUCGUAGAAGGAACACCUG [Aaredima] (Eterna round: R97, puzzle: Exclusion 3)	69.1	62.6			
UGGUCACAUGAGGAUCACCCAUGUCAGGAUAUCGUCACUGGAGCUUCGGCUCCAGUGACGAGAAGGGAUAUAAU [E1/9-A1] (Eterna round: R97, puzzle: Exclusion 1)	191	57.8			
